Experimental data published in patent US12331106B2, “Anti-angiopoietin-2 antibodies that induce Tie2 activation” (Institute for Basic Science, priority 2018, dated 2025).

Columns and labels:
[1] = tested on: downstream signaling of the Tie2 receptor (Akt phosphorylation) in HUVECs; experiment: Akt phosphorylation in HUVECs by mouse anti-Ang2 antibodies plus hAng2 (immunoblot); format: cell-based, human; settings: serum-starved HUVECs; antibody combined with hAng2 1 μg/ml; 30 min
Experimental: To investigate whether the mouse anti-Ang2 antibodies induce the downstream signaling of the Tie2 receptor in endothelial cells, HUVECs (LONZA™) were treated with a combination of hAng2 protein and anti-Ang2 antibody, and then the level of Akt phosphorylation, the main downstream signaling protein of Tie2 receptor, was analyzed by immunoblotting. As a negative control group, the full-length hAng2 (R&D® Systems) alone was treated into the cells.
Specifically, HUVECs (1×10^5 cells/ml) were cultured in EGM-2 medium (LONZA™) at 37° C. in a 60 mm culture dish. Cells (90% confluency) were incubated with serum-free EBM-2 medium for 4 hrs for serum starvation. The serum-starved HUVECs were treated with a mixture of anti-Ang2 antibody and hAng2 protein (1 μg/ml, R&D® Systems) and further incubated for 30 min. The cells were washed with cold PBS, treated with lysis buffer, and lysed at 4° C. for 20 min. Then, the cell lysates were prepared by centrifugation at 13000 rpm for 15 min. 5× SDS sample buffer was added to the cell lysate and the cell lysate was boiled at 95° C. for 5 min. Then, the cell lysate was subjected to SDS PAGE and proteins were transferred to a nitrocellulose membrane (GE).
To investigate Akt phosphorylation, the blot was blocked with 5% skim milk-containing TBS-T for 1 hr at room temperature (RT), and incubated with anti-phospho-Akt antibody (S473) at 4° C. for about 8 hrs. The amount of phospho-Akt was visualized by an enhanced chemiluminescence (ECL). Then, the membrane was incubated in a stripping buffer (Thermo) for 15 min, and then reprobed with an anti-Akt antibody to determine the amount of total Akt.

hAng2 = target: T1, hAng2 (Homo sapiens, UniProt O15123); experiment: OCTET affinity of mouse monoclonal anti-Ang2 antibodies against hAng2; settings: hAng2 fixed on AR2G biosensor, 1:1 binding model
T1 sequence (O15123 19-496): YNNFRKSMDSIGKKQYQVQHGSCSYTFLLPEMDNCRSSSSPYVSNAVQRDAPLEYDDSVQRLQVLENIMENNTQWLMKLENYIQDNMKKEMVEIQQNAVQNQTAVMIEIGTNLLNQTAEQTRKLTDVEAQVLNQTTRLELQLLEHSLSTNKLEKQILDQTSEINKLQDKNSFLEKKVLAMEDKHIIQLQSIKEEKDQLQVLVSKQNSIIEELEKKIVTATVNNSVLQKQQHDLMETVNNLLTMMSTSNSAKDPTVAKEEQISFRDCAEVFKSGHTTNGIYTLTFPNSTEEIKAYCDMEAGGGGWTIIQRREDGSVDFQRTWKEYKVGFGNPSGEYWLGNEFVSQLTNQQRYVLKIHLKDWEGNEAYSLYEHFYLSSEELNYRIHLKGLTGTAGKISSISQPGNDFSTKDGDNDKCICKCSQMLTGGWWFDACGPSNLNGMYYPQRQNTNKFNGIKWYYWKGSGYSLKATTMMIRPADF
Experimental: The affinity of mouse monoclonal antibody against hAng2 was measured using OCTET® system (ForteBio, real-time, label-free bio-layer interferometry system for determination of affinity, kinetics, and concentration). Specifically, buffer and samples were measured in total 200 μl/well using Black 96-well plates (96 well F-type black plates, Greiner). The biosensor used for affinity measurements was hydrated for 10 min before measurement with AR2G tip (ForteBio OCTET®). After the hydration, hAng2 was diluted in 10 mM sodium acetate, pH 6.0 buffer at a concentration of 10 μg/ml, fixed on AR2G biosensor, and blocked with 1M ethanolamine. The mouse monoclonal anti-Ang2 antibodies were diluted to 50, 25, 12.5, 6.25, 3.125, and 0 nM with 1× kinetic buffer, and subjected to association for 300 seconds and dissociation for 900 seconds. For affinity measurement (KD), the association rate (K-on) and dissociation rate (K-off) were analyzed by binding curve (global) and fitted to 1:1 binding model using OCTET® data analysis v9.0.0.10 program.

Molecule | Akt phosphorylation at S473 [1] | Koff (hAng2) | Kon (hAng2)
2C8: mouse monoclonal anti-Ang2 antibody; VH SEQ ID NO: 19, VL SEQ ID NO: 21; hybridoma KCLRF-BP-00417 (antibody, V domains shown, Heavy Chain Variable Region; Light Chain Variable Region, mouse monoclonal anti-Ang2 antibody; hybridoma KCLRF-BP-00417) VH: QVQLQQSGPQLVRPGASVKISCKASGYSFTSYWMHWVKQRPGQGLEWIGMIDPSDSETRLNQKFKDKASLTVDKSSSTAYMQLSSPTSGDSAVYYCARRFYYGSDWYFDVWGAGSTVTVSS VL: DIVMTQSHKFMSTSVGDRVSITCKASQDVGTAVAWYQQKPGQSPKLLIYWASTRHTGVPDRFTGSGSGTDFTLTISNVQSEDLADYFCQQYSSYPLTFGSGTKLEIK | strongly induced | 3.54e-06 s⁻¹ | 77800 M⁻¹ s⁻¹
4B9: mouse monoclonal anti-Ang2 antibody; VH SEQ ID NO: 9, VL SEQ ID NO: 11; hybridoma KCLRF-BP-00418 (antibody, V domains shown, Heavy Chain Variable Region; Light Chain Variable Region, mouse monoclonal anti-Ang2 antibody; hybridoma KCLRF-BP-00418) VH: EVQLVESGGGLVKPGGSLKLSCAASGFTFSDYYMYWVRQTPEKRLEWVATISVGGSFTYYPDSVKGRFTISRDNAKNNLYLQMSSLKSEDTAMYYCARDWGLRPWFVYWGQGTLVTVSA VL: DIVMTQSHKFMSTSVGDRVSITCKASQDVSTAVAWYQQKPGQSPKLLIYWASTRHTGVPDRFTGSGSGTDYTLTISSVQAEDLALYYCQQHYSTPPTFGSGTKLEIK | strongly induced | 5.04e-07 s⁻¹ | 137000 M⁻¹ s⁻¹
